Consider 133 substances from the supplement of paper PMC12042874.

± gives the uncertainty stated by the source.

The nature of this data set: amyloid nucleation score (Sup35N fusion, yeast selection) (log enrichment); library NNK3; higher = more nucleation; inactive = no reads after selection. The procedure, abridged:
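Three technical output replicates were used for random libraries. Psi-negative yeast expressing peptides of 20 random codons fused to Sup35N were induced with 100 μM copper sulfate for 24 hours and grown 7 days at 30°C on medium lacking adenine and uracil, and input and output plasmid inserts were Illumina-sequenced, excluding sequences with under 100 input reads. The nucleation score is the DiMSum log enrichment of output over input reads, centred on the mode score of non-aggregating sequences.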
TYSVGHR: the amyloid nucleation score entry was “inactive”.

Regarding FSCDIMRPTKLGYSFDGLLL, the amyloid nucleation score result is “inactive”.

For the substance NICCHISKSRPYQVYFSLQL, the amyloid nucleation score result was “inactive”.

As to LAVTFVHRLCWILLFWD, the amyloid nucleation score result was “inactive”.

With AYRLTLCLPSWVWL, the amyloid nucleation score entry was “inactive”.

With GRPIKWKKRSAVK, the amyloid nucleation score entry is “inactive”.

Take FNTRQSNLKDDMVSFHDSDL: the amyloid nucleation score result was “inactive”.

On to TRALT, for which the amyloid nucleation score entry is “inactive”.

For MSICFDPWTRPKCGVYCRCS, the amyloid nucleation score result is “inactive”.

LSLHEGWSVNCVFCLLLTVW registered an amyloid nucleation score of 2.42 ± 0.077.

As to CKVHECHVPAG, the amyloid nucleation score entry was “inactive”.

PNRWLSRLALRIFLGHCEPV: the amyloid nucleation score entry is “inactive”.

As for LMRLLLNYWSITAIILL, the amyloid nucleation score entry is “inactive”.

In the case of LYMVSYG, the amyloid nucleation score entry was “inactive”.

Consider CMDKFWCVVYA, for which the amyloid nucleation score was -0.416 ± 1.5.

Turning to KKYLTNVDLNVSN, the amyloid nucleation score result is “inactive”.

The substance SNASIYRSFWWGKYSRA displayed an amyloid nucleation score of -0.619 ± 0.82.

Turning to CNGFFCGMCCYTKRKMKYAI, the amyloid nucleation score entry is “inactive”.

On to FFVMCARGHTMRSYTFFVK, for which the amyloid nucleation score entry was “inactive”.

On to QIVRYASSQCDCRNFLSTVE, for which the amyloid nucleation score entry is “inactive”.

Substance LLMSLL had an amyloid nucleation score of 0.09 ± 0.88.

For the substance SFICGINNELVK, the amyloid nucleation score entry was “inactive”.

Consider CTKKM, for which the amyloid nucleation score entry was “inactive”.

As to NCRRRKCVTGGGRS, the amyloid nucleation score came out at 1.16 ± 0.17.

For the substance LRSRKWSSTVSCEYSANGLR, the amyloid nucleation score entry was “inactive”.

In the case of QFMNKIIMCLGSF, the amyloid nucleation score is -0.263 ± 0.58.

With CKVYGKSLVMAYN, the amyloid nucleation score entry was “inactive”.

Substance FVRTLCCLAYVWHYDLRYC had an amyloid nucleation score of 0.406 ± 0.31.

On to IWSMWIYCRNGHH, for which the amyloid nucleation score entry is “inactive”.

Take IPVAIMLS: the amyloid nucleation score entry is “inactive”.

For the substance PYFTDAFVNEMDMQCH, the amyloid nucleation score result was “inactive”.

CLVWG: the amyloid nucleation score entry was “inactive”.

Turning to NYVLRTSVVL, the amyloid nucleation score entry is “inactive”.

For the substance KNVFGSSFLLVVSYCNISAF, the amyloid nucleation score stood at 1.95 ± 0.091.

As to NKVCLDTSAVYYSFRDKDG, the amyloid nucleation score entry was “inactive”.

As to SGDNMPAWVDHMSCHKRWSG, the amyloid nucleation score is -0.474 ± 1.1.

WNLSSFININPSYYSDTWHG registered an amyloid nucleation score of 2.08 ± 0.071.

Regarding LVVLIFYYV, the amyloid nucleation score entry was “inactive”.

SKIFVNIDYVKVFRMICEWR: the amyloid nucleation score entry was “inactive”.

As to VRCYRVIMRLTFAETCQGHP, the amyloid nucleation score result was “inactive”.

As to STCYSCVMLMVGS, the amyloid nucleation score result is “inactive”.

Consider RRVLTARDWVCH, for which the amyloid nucleation score entry is “inactive”.

SLTMNLFVRTASCGLASRVR gave an amyloid nucleation score of -0.541 ± 1.7.

On to RFMSCMGFPHRCHGSSRYVG, for which the amyloid nucleation score result is “inactive”.

With FDLTWSIVEHFHVWLLRFSF, the amyloid nucleation score entry is “inactive”.

With KSHPLNSVPEKLMLVWRSWK, the amyloid nucleation score result was “inactive”.

For the substance FVYFKLGVMSPLQTTNTHLS, the amyloid nucleation score worked out at 0.804 ± 0.11.

For the substance EHNYVSTIGYSCRFEPGTRR, the amyloid nucleation score result is “inactive”.

FFYSAFENMMMALLKMRKFH: the amyloid nucleation score result was “inactive”.

For FSSMF, the amyloid nucleation score entry is “inactive”.

Consider VRAVLIAYGLK, for which the amyloid nucleation score result is “inactive”.

The substance QVLFAYIYLSLVNVSQG yielded an amyloid nucleation score of 1.03 ± 0.14.

On to LRSKECIKMALKWLCKKYYW, for which the amyloid nucleation score result is “inactive”.

With NMIAVYLVLPRDSLGMIFTF, the amyloid nucleation score result was “inactive”.

Regarding VIFYCFSRILTYKSIVVG, the amyloid nucleation score result is “inactive”.

In the case of VEGCMIFMVVSLLKHYASYT, the amyloid nucleation score entry is “inactive”.

For the substance VEAMQVWDSSFMSCTNLFTS, the amyloid nucleation score entry is “inactive”.

LCIWNWFLSSNRMLRKLAD: the amyloid nucleation score entry was “inactive”.

As to MMMQLNGVHMV, the amyloid nucleation score entry is “inactive”.

Consider ECFEVEQGILDAHSNCWGNI, for which the amyloid nucleation score is 0.778 ± 0.2.

As to IHGKGGLWSHSISIHWNN, the amyloid nucleation score entry is “inactive”.

Consider GFSTYRIKIVYDVNMY, for which the amyloid nucleation score result was “inactive”.

On to TVSLRCWARLSNTDFIRFNS, for which the amyloid nucleation score result is “inactive”.

On to RYTWTTDYNVM, for which the amyloid nucleation score result is “inactive”.

On to GKWKIKQ, for which the amyloid nucleation score result is “inactive”.

For the substance SAYLELLLRSFAVICNLSLT, the amyloid nucleation score came out at 2.31 ± 0.061.

As for DPINNYSLFFKLCLELHFFA, the amyloid nucleation score entry was “inactive”.

In turn, CSIYNCMSHHKRVTG came in with an amyloid nucleation score of 1.2 ± 0.15.

Consider TYKHNSTYIKPLTSFLQSGG, for which the amyloid nucleation score entry was “inactive”.

Take VITLYVVGVYWGGNDIGDFM: the amyloid nucleation score came to 0.976 ± 0.19.

As to FFTMSKI, the amyloid nucleation score result was “inactive”.

For the substance KGGCW, the amyloid nucleation score result was “inactive”.

YTMLFLLLSWNVFFISWCCF: the amyloid nucleation score result is “inactive”.

Take ACTCDRAGDRLVVWLLDGYL: the amyloid nucleation score entry was “inactive”.

Turning to LSGYYEQVVWVNRSSNSTMN, the amyloid nucleation score entry was “inactive”.

DPHCQGFVWGSCMDVWYLSL: the amyloid nucleation score came to 2.7 ± 0.062.

For the substance KSALYADLVGYLGSACMGSR, the amyloid nucleation score entry is “inactive”.

LQTVNLLVPACI: the amyloid nucleation score result is “inactive”.

As for CLGADCVAHFSYFHA, the amyloid nucleation score result is “inactive”.

As to NNSFNYGNHGRSSVFNNLRC, the amyloid nucleation score result was “inactive”.

VWKLRLDVLIITIWGFNFYL: the amyloid nucleation score entry was “inactive”.

Consider SKSARVLSFYYPYFFISINL, for which the amyloid nucleation score entry is “inactive”.

Turning to YFRFRSFLVLSDM, the amyloid nucleation score entry was “inactive”.

As to WAEFLCLSSSFFLDM, the amyloid nucleation score result is “inactive”.

Take MSNMWKEYALALVVGLSFRL: the amyloid nucleation score result is “inactive”.

FDERSF: the amyloid nucleation score entry was “inactive”.

Consider WTSQVMRMDKTQVTGRDRVA, for which the amyloid nucleation score entry is “inactive”.

Turning to PSSLKCKLAI, the amyloid nucleation score entry was “inactive”.

For YLEVLVGSNQCFNMQG, the amyloid nucleation score result was “inactive”.

Substance ISDTYSWCRYLVIGNYAQLG came in with an amyloid nucleation score of 0.463 ± 0.23.

As for RWSRGMVSNCRENATWYDAA, the amyloid nucleation score entry is “inactive”.

As for SCRLSISFTGAGNVRCAKMM, the amyloid nucleation score result was “inactive”.

On to SPLNQVSGYIMFWYSGT, for which the amyloid nucleation score entry was “inactive”.

The substance VYNCAMVCPNLIFWSFATGL displayed an amyloid nucleation score of 2.55 ± 0.069.

For IVQVV, the amyloid nucleation score result was “inactive”.

With FCDAKYLRLRSCALISMPSV, the amyloid nucleation score entry was “inactive”.

In turn, VFNKCVQFYFILGRNNEIWI returned an amyloid nucleation score of 2.56 ± 0.077.

As for NSKGMI, the amyloid nucleation score result was “inactive”.

Substance SSIHVGVYYFMCMLEDVSRE gave an amyloid nucleation score of 1.07 ± 0.14.

For the substance TRMSVQLISFAKLTFFSACM, the amyloid nucleation score entry was “inactive”.

With FFPDGDQTYMA, the amyloid nucleation score entry is “inactive”.

In the case of LNFAHAKMFSFITMVVY, the amyloid nucleation score result is “inactive”.

As to RFIEKTSKIMSPDAYPSLKY, the amyloid nucleation score result is “inactive”.

On to LWDRVNCFYFRDEGDELEER, for which the amyloid nucleation score entry is “inactive”.

EFGFVNGNRAGWGYFQRRAL: the amyloid nucleation score is -0.55 ± 2.4.

SSFSVSVVSKGKSVRNSGSL: the amyloid nucleation score is 0.568 ± 0.33.

For IMLKGS, the amyloid nucleation score result was “inactive”.

For the substance DDECELNMRYNGREYQGTDG, the amyloid nucleation score entry was “inactive”.

With GRIFYWRDMDTYQR, the amyloid nucleation score result is “inactive”.

Turning to VWRRKKAGAHYREDVSNYPQ, the amyloid nucleation score entry is “inactive”.

For the substance TKLPNYFWGLKGYHLLALLR, the amyloid nucleation score entry is “inactive”.

FWWVKC: the amyloid nucleation score result is “inactive”.

With VNTLPQLLSLYSDLLRGESL, the amyloid nucleation score was -0.218 ± 1.4.

For SYGLTHMSKAIGDHRVVIAT, the amyloid nucleation score entry is “inactive”.

On to IKPCGCSVLDIRT, for which the amyloid nucleation score entry is “inactive”.

CDRTIMRSYDPAL showed an amyloid nucleation score of 1.16 ± 0.099.

With LPSLQTG, the amyloid nucleation score entry was “inactive”.

The substance ISHVNRSNLVFLYFIVVL displayed an amyloid nucleation score of 0.669 ± 0.15.

As for SFYMPTQKLMLFIVVKVKAT, the amyloid nucleation score entry was “inactive”.

Turning to LLVLLVFTALY, the amyloid nucleation score result is “inactive”.

Turning to TKLCQSLRHAQRGTRTTSFS, the amyloid nucleation score result was “inactive”.

On to GLFLGYSLIASVIGRLVDNL, for which the amyloid nucleation score entry is “inactive”.

Consider VHTCGRKVWFEA, for which the amyloid nucleation score result was “inactive”.

On to LVVSVRTYPTGCCPYKMLNQ, for which the amyloid nucleation score entry is “inactive”.

ASATAYSVNLRLKVTVNM had an amyloid nucleation score of 1.71 ± 0.12.

In turn, TPLTPSGRLGFLTK displayed an amyloid nucleation score of 0.7 ± 0.21.

LVFPPAY: the amyloid nucleation score result was “inactive”.

In the case of YKICSLACVKHGREPV, the amyloid nucleation score result was “inactive”.

On to NNMLIGVRSVRAYKWFMHCV, for which the amyloid nucleation score entry was “inactive”.

As for LRLCGAMPDRCLW, the amyloid nucleation score result was “inactive”.

GIVSYCICIFGNFQK returned an amyloid nucleation score of 2.64 ± 0.064.

Take ALVRGIVSTPDSRM: the amyloid nucleation score entry was “inactive”.

As to LSKPFPSMHFSRRWNRNGLW, the amyloid nucleation score entry is “inactive”.
